According to doi:10.1101/2022.12.22.521671 (bioRxiv, 2022):

Experiments:
Assay in all cases: BLI
[1] = target: biotinylated IQN22 (HIV-1 HXB2) (UniProt P04578)
[2] = target: biotinylated IQN17 (HIV-1 HXB2) (UniProt P04578)
biotinylated IQN22 = target: T1, biotinylated IQN22 (HIV-1 HXB2 gp41 565-586 fused to …, chimera, not fully specified; biotin (position not given))
T1 chain: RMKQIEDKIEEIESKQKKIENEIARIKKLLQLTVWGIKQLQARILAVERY

biotinylated IQN17 = target: T2, biotinylated IQN17 (HIV-1 HXB2 gp41 565-581 fused to …, chimera, not fully specified; biotin (position not given))
T2 chain: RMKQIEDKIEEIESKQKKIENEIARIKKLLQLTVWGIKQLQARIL

## PIE12 (peptide)
[1]
  Kd: 2 nM
[2]
  Kd: 3 nM

B1: D5 Fab (Fab, V domains shown)
VH: QVQLVQSGAEVRKPGASVKVSCKASGDTFSSYAISWVRQAPGQGLEWMGGIIPIFGTANYAQAFQGRVTITANESTSTAYMELSSLRSEDTAIYYCARDNPTLLGSDYWGAGTLVTVSS
VL: DIQMTQSPSTLSASIGDRVTITCRASEGIYHWLAWYQQKPGKAPKLLIYKASSLASGAPSRFSGSGSGTDFTLTISSLQPDDFATYYCQQYSNYPLTFGGGTKLEIK
Biotinylated IQN22
  Kd: 5 nM
Biotinylated IQN17
  Kd: 14 nM
